In paper PMC10703496:

Key:
[1] = molecular target: 6×His-tagged receptor-binding domain (RBD) of SARS-CoV-2 spike, Wuhan (SARS-CoV-2) (UniProt P0DTC2); experiment: SPR
[2] = molecular target: spike protein of live Wuhan SARS-CoV-2 (SARS-CoV-2) (UniProt P0DTC2)
[3] = molecular target: dimeric ACE2-albumin fusion: truncated human ACE2 (residues 18–740) fused to engineered human albumi (human) (UniProt Q9BYF1); experiment: SEC
[4] = molecular target: soluble His-tagged human neonatal Fc receptor (human) (UniProt P55899)
Sequence of soluble His-tagged human neonatal Fc receptor (human) (P55899 24-297, chain 1 of 2): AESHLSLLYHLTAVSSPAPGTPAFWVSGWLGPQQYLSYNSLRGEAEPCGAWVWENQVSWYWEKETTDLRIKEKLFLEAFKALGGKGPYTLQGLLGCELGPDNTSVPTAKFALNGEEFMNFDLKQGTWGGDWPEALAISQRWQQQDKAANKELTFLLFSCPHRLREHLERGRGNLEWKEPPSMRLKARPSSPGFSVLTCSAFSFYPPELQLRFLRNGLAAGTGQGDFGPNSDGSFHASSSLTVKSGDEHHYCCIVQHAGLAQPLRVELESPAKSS
Sequence of soluble His-tagged human neonatal Fc receptor (human) (P61769 21-119, chain 2 of 2, further chain): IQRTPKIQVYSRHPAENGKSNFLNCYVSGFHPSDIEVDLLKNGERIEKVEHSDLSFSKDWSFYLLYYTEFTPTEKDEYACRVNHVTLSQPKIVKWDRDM

[5] = molecular target: dimeric ACE2-albumin fusion: truncated human ACE2 (residues 18–740) fused to full-length wild-type human albumin (human) (UniProt Q9BYF1); experiment: SEC
[6] = molecular target: ACE2(18–740)-WT: truncated dimeric human ACE2 (residues 18–740) fused to the N-terminal end of full- (human) (UniProt Q9BYF1); experiment: SPR; pH 5.5
[7] = molecular target: ACE2(18–740)-WT: truncated dimeric human ACE2 (residues 18–740) fused to the N-terminal end of full- (human) (UniProt Q9BYF1); experiment: SPR

Sequence of soluble His-tagged human neonatal Fc receptor (human FcRn-His) (P55899 24-297): as the sequence (P55899 24-297, chain 1 of 2) above
Sequence of soluble His-tagged human neonatal Fc receptor (human FcRn-His) (P61769 21-119): as the sequence (P61769 21-119, chain 2 of 2, further chain) above

| Substance | Kd [1] | koff [1] | kon [1] | further results |
| --- | --- | --- | --- | --- |
| ACE2(18–615)-QMP: monomeric ACE2 peptidase domain (residues 18–615) fused to the N-terminal end of QMP human albumin (from UniProt Q9BYF1-1;P02768) | 108 nM | 0.026 s⁻¹ | 240000 M⁻¹ s⁻¹ | – |
| ACE2(18–615)-WT: monomeric ACE2 peptidase domain (residues 18–615) fused to the N-terminal end of fu (from UniProt Q9BYF1-1;P02768) | 327 nM | 0.0124 s⁻¹ | 38000 M⁻¹ s⁻¹ | – |
| ACE2(18–740)-WT: truncated dimeric human ACE2 (residues 18–740) fused to the N-terminal end of full- (from UniProt Q9BYF1-1;P02768) | 0.9 nM | 0.00015 s⁻¹ | 166000 M⁻¹ s⁻¹ | Table S3: IC50 of live virus neutralization (Wuhan SARS-CoV-2 on Vero E6 cells) [2]: 293 nM |
| dimeric ACE2-albumin fusion: truncated human ACE2 (residues 18–740) fused to engineered human albumi (from UniProt Q9BYF1 18-740) | – | – | – | stoichiometry N [3]: 2 |
| dimeric ACE2-albumin fusion: truncated human ACE2 (residues 18–740) fused to full-length wild-type human albumin (from UniProt Q9BYF1;P02768) | – | – | – | plasma half-life after IV injection in human FcRn Tg32 mice [4]: 26.4 h; stoichiometry N [5]: 2 |
| soluble His-tagged human neonatal Fc receptor (human FcRn-His) (from UniProt P55899 24-297; P61769 21-119) | – | – | – | Kd [6]: 102 nM; koff [6]: 0.0061 s⁻¹; kon [7]: 60000 M⁻¹ s⁻¹ |
